{"source": "paper PMC12855940", "target": "tau 2N4R (tau-441) wild type (human, UniProt P10636-8 1-441)", "assay": "EMSA", "data": [{"binder": "24-bp dsDNA (dsDNA) DNA 1: TCGACACGGAAATGTTGAATACTA DNA 2: TAGTATTCAACATTTCCGTGTCGA", "values": [{"measurement": "binding result", "value": "binds"}]}]}
